Data on one molecule can be found in patent publication US20200308303A1.

For test [1], the target named is human ADAMTS13 (A Disintegrin And Metalloproteinase with a ThromboSpondin type 1 motif, member 13) (human) (UniProt Q76LX8). In words: cell-based or functional assay.
Test [2] has the same target. The experiment in a line: sandwich ELISA: dilution series of coated antibody (10 to 0.02 µg/mL), constant 15% normal human plasma; half maximal binding by nonlinear regression. Background: In an ELISA, binding on a coated surface is turned into a signal by an enzyme label.

Chain of human ADAMTS13 (A Disintegrin And Metalloproteinase with a ThromboSpondin type 1 motif, member 13) (human) (Q76LX8 75-1427): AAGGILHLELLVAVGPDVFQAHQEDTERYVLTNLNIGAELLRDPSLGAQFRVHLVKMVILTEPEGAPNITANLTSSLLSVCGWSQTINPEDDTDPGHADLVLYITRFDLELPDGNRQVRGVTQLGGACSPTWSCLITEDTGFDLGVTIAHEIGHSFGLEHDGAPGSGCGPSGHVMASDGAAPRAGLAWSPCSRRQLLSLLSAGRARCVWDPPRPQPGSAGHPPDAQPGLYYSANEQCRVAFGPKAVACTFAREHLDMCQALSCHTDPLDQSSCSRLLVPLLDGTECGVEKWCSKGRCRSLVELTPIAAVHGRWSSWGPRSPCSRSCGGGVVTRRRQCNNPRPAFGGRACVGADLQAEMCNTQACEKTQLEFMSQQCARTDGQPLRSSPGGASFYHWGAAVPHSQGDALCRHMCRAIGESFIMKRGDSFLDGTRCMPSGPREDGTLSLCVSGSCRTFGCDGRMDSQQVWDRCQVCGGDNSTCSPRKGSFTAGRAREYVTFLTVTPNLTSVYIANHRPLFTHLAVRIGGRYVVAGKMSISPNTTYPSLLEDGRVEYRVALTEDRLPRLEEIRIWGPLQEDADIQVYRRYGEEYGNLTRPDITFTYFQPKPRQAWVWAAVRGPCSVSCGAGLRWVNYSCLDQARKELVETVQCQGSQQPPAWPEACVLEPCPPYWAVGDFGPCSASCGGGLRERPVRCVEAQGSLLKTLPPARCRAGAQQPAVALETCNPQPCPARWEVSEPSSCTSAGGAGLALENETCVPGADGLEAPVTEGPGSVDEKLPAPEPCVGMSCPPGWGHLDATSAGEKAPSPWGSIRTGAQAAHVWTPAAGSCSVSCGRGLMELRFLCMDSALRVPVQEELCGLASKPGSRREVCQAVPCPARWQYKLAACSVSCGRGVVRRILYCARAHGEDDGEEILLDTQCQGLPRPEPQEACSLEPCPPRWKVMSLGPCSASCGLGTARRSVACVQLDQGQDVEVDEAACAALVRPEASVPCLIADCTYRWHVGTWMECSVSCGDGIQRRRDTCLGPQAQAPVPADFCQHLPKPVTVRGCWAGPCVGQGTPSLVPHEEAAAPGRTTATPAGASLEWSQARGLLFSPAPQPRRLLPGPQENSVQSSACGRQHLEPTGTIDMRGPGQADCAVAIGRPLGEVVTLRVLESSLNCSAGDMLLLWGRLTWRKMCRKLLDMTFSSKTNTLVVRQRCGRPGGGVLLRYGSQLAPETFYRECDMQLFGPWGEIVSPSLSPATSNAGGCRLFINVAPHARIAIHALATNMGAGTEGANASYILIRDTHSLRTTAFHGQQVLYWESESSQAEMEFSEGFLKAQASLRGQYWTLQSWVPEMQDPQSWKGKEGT

B1: monoclonal anti-ADAMTS13 antibody 17C7 (antibody, V domains shown)
VH: EVQLVESGGDLVKSGGSLKLSCAASGFIFSNYAMSWVRQTPEKRLEWGATITTGGFYTFYSDSVKGRFTISRDNAKNTLYLQMSSLRSEDTAMYYCARHRYDDYYALDYWGQGTSVTVSS
VL: ENVLTQSPAIMSTSPGEKVTMTCNVSSSVSYMRWFQQKSSTSPKLWIYDTSKLASGVPGRFSGSGSGHSYSLTISSMEADDVATYYCFQGNGYPLTFGAGTKLELK
modifications: Biotinylated when used as detector; the site is not stated and the letters cannot carry it.
B1 returned a half maximal inhibitory concentration (IC50) of ADAMTS13 activity in normal human plasma, FRETS-VWF73 assay in test [1] of 0.47 µg/mL. Further, the half-maximal binding concentration (EC50) of coated antibody in test [2] worked out at 0.51 µg/mL.
